Our source for the Kd values is patent publication US20090208454A1 (AMBRX, published 2009).

One may read the Kd as the equilibrium constant for the complex coming apart. High values mean a looser complex, low ones a tighter complex.

The experiment deals with T1, IFNAR2 extracellular domain (UniProt P48551 27-243, limits assumed).
T1 construct: extracellular domain; It was immobilized on a CM5 Biacore chip by lysine-specific coupling; also called IFNAR2ECD; IFNAR ECD
T1 sequence (looked up): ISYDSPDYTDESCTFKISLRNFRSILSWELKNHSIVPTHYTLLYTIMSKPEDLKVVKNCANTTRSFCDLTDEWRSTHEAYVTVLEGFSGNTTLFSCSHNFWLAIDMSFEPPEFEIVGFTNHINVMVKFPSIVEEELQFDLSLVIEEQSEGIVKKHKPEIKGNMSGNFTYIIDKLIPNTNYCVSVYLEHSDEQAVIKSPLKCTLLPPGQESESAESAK
Nature of the experiment: Biacore SPR, IFNAR2 ECD immobilized on CM5 chip, IFN injected, 1:1 model, average Kd. The method, then: The refolding reaction was then concentrated to 25 ml using an Amicon stirring cell, and dialyzed overnight against 20 mM Tris, pH 8, 20 mM NaCl, 10% glycerol. Monomeric refolded IFNAR ECD was purified on HP Q Sepharose using the AKTA FPLC system (Amersham). Purified IFNAR2ECD was immobilized on CM5 Biacore chip using a lysine-specific coupling procedure recommended by the manufacturer. About 200 RUs of functional protein were immobilized. Various concentrations of IFN beta variants in HBS-EP buffer (Biacore) were injected at a flow rate of 50 mcl/minute over the flowcell containing immobilized IFNAR2, and a control flowcell containing immobilized bovine serum albumin. Sensograms generated were fit to the 1:1 interaction model to calculate kₒₙ, koff and Kd values using BiaEvaluation software (Biacore).

B1: (C17S)-IFNβ (ligand)
chain: MSYNLLGFLQRSSNFQSQKLLWQLNGRLEYCLKDRMNFDIPEEIKQLQQFQKEDAALTIYEMLQNIFAIFRQDSSSTGWNETIVENLLANVYHQINHLKTVLEEKLEKEDFTRGKLMSSLHLKRYYGRILHYLKAKEYSHCAWTIVRVEILRNFYFINRLTGYLRN
notes: also called IFN beta with C17S substitution; (C17S)-IFN beta
B1: the Kd was 0.8 nM. This lies in the sub-nanomolar range.
